First the molecules themselves.
B1: STING cytosolic domain (hSTING CTD lacking CTT3, aa 137-366) (domain or fragment)
chain: KGLAPAEISAVCEKGNFNVAHGLAWSYYIGYLRLILPELQARIRTYNQHYNNLLRGAVSQRLYILLPLDCGVPDNLSMADPNIRFLDKLPQQTGDHAGIKDRVYSNSIYELLENGQRAGTCVLEYATPLQTLFAMSQYSQAGFSREDRLEQAKLFCRTLEDILADAPESQNNCRLIAYQEPADDSSFSLSQEVLRHLRQEEKEEVTVGSLKTSAVPSTSTMSQEPELLIS

Where no end group is shown, it is not given here.

Data set [1] addresses STING cytosolic domain (hSTING CTD lacking CTT3, aa 137-366) (human) (UniProt Q86WV6). The experiment in a line: MST.
Data set [2] concerns the target B1. In words: NMR titration.
The next data set deals with STING-R284S CTD (human, UniProt Q86WV6 137-366, R284S). The experiment in a line: NMR titration.
In data set [3] the target is B1. In words: MST.
The data set “SEC” concerns the molecule itself. In words: SEC.

Take CTT8 peptide (MFEKPLPL): the fold enhancement of affinity over CTT7 in data set [1] turned out to be 2.7 fold.

As to MEKPLPL (also: 15N isotopically labelled amino acids) [15N-labelled CTT7], the binding result (in data set [2]; with STING-R284S CTD) was “binds” each time.

For the molecule MEKPLPL [CTT7 peptide (unlabelled)], the affinity in data set [3], expressed as Kd, was 10.7 µM.

Take B1: in “SEC”, the binding result is “binds”.

The term Kd denotes the equilibrium constant for the complex coming apart.

(Values after publication doi:10.1101/2023.08.11.553045 (bioRxiv, 2023).)
